According to IntAct's records for PubMed 19542283:

B1: Chemotaxis protein CheA (Escherichia coli (strain K12)), P07363-2 (parent)
chain: MQEQLDAYKQSQEPDAASFDYICQALRQLALEAKGETPSAVTRLSVVAKSEPQDEQSRSQSPRRIILSRLKAGEVDLLEEELGHLTTLTDVVKGADSLSAILPGDIAEDDITAVLCFVIEADQITFETVEVSPKISTPPVLKLAAEQAPTGRVEREKTTRSNESTSIRVAVEKVDQLINLVGELVITQSMLAQRSSELDPVNHGDLITSMGQLQRNARDLQESVMSIRMMPMEYVFSRYPRLVRDLAGKLGKQVELTLVGSSTELDKSLIERIIDPLTHLVRNSLDHGIELPEKRLAAGKNSVGNLILSAEHQGGNICIEVTDDGAGLNRERILAKAASQGLTVSENMSDDEVAMLIFAPGFSTAEQVTDVSGRGVGMDVVKRNIQKMGGHVEIQSKQGTGTTIRILLPLTLAILDGMSVRVADEVFILPLNAVMESLQPREADLHPLAGGERVLEVRGEYLPIVELWKVFNVAGAKTEATQGIVVILQSGGRRYALLVDQLIGQHQVVVKNLESNYRKVPGISAATILGDGSVALIVDVSALQAINREQRMANTAA
partner: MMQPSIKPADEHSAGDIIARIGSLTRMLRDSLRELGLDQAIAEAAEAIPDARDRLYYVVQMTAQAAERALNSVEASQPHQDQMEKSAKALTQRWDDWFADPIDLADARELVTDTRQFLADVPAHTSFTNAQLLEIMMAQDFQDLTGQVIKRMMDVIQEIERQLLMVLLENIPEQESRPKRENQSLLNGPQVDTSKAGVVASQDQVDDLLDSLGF

Variants of: B1
Details: with chez_ecoli cheZ

| effect of a mutation on the interaction | Variant |
| --- | --- |
| disrupting interaction strength | L26A |
| disrupting interaction strength | L26S |

Continued, variant first:

| Variant | effect of a mutation on the interaction |
| --- | --- |
| Y21S | disrupting interaction strength |
| I22S | disrupting interaction strength |
| I22A | decreasing interaction strength |
